Publication doi:10.1101/844829

Experiments:
[1] = molecular target: Rhodamine-labeled GMPCPP-stabilized microtubules from porcine tubulin (10 % rhodamine-labeled tubulin) (porcine) (UniProt P02550); test: single-molecule TIRF microscopy
[2] = molecular target: GMPCPP-stabilized microtubules polymerized from porcine tubulin (porcine) (UniProt P02550); test: optical tweezers with 2D force clamp

Full-length budding yeast Kip3 (Kip3-eGFP-His6) (from UniProt P53086 1-805) (natural protein)
mean end residence time at the microtubule plus end (no load) [1]: 80 s
mean run time on the microtubule (no load) [1]: 150 s
end residence time at the microtubule plus end (sideward load 0.5 pN) [2]: 33 s
end residence time extrapolated to zero load from the high-assisting-load data [2]: 17 s
mean end residence time at the microtubule plus end (without load) [2]: 64 s
